Residue numbers refer to the chain shown, from its start.
B1: Fab SEQ ID NOs: 13, 4 (Fab, V domains shown)
VH: QVQLVESGGGVVQPGRSLRLSCAASGFTFSSYPLHWVRQAPGKGLEWVSFISYDGSEKYYASSVKGRFTISRDNSENTLYLQMNSLRPEDTAVYYCARNRGDIYYDFTYAMDIWGQGTMVTVSS
VL: DIQMTQSPSSLSASVGDRVTITCRASQSISRWVAWYQQRPGKAPNLLIYDASSLKSGVPSRFSGSGSGTEFTLTISSLQPEDIATYYCQQFWSTPYTFGQGTKLEIK
B2: Fab SEQ ID NOs. 24, 26 (Fab, V domains shown)
VH: B1 VH with Q1E, S31N, L34M, S49A, F50V, Y59W, S62D, E76K, Q82E, M119T
VL: DIQLTQSPSTLSASVGDSVTITCRASEGVDRWLAWYQQKPGRAPKLLIYDASTLQSGVPSRFSGSGSGTEFSLTISSLQPDDVATYYCQHFWGTPYTFGQGTKLEIK
B3: Fab SEQ ID NOs: 13, 37 (Fab, V domains shown)
VH: B1 VH
VL: B1 VL with S93G
B4: Fab SEQ ID NOs: 13, 10 (Fab, V domains shown)
VH: B1 VH
VL: DIQLTQSPSFLSASVGDRVTITCRASQGISTYLAWYQQKPGKAPKLLIYDASALQSGVPSRFSGSGSGTEFTLTISSLQPEDVATYYCQQFWSTPYTFGQGTKLEIK
B5: Fab SEQ ID NOs 3, 4 (Fab, V domains shown)
VH: QVQLVESGGGVVQPGGSLRLSCAASGFTFSTAGMHWVRQAPGKGLEWVAVIWYNGKEISYADSVKGRFTVSRDNPKNTLYLQMSSLRTEDTAVYYCARNRGDIYYDFTYAMDIWGQGTMVTVSS
VL: B1 VL
B6: Fab SEQ ID NOs: 5, 6 (Fab, V domains shown)
VH: B5 VH with G16R, A23T, T28S, T31S, A32Y
VL: B4 VL with D1A, D50A, A53S, E70D
B7: Fab SEQ ID NOs. 35. 36 (Fab, V domains shown)
VH: EVQLVESGGGVVQPGRSLRLSCAASGFTFSNYPMHWVRQAPGKGLEWVAVISYDGSEKWYADSVKGRFTISRDNSKNTLYLEMNSLRPEDTAVYYCARNRGDIYYDFTYAMDYWGQGTTVTVSS
VL: B2 VL with G93S

Each binder was assayed against PcrV on Pseudomonas aeruginosa strain PA103 (type III secretion system) (Pseudomonas aeruginosa strain PA103) (assay: cell-based or functional assay).

In order of falling “IC50 (nM), TTSS-dependent cytotoxicity assay (PA103 killing of P3-X63-Ag8 myeloma cells, propidium iodide flow cytometry)” value:
1. B7  61.4 nM
2. B6  50.2 nM
3. B5  35.1 nM
4. B2  25.5 nM
5. B4  25.5 nM
6. B1  20 nM
7. B3  12 nM

— US20100272736A1 (KALOBIOS PHARMACEUTICALS, published 2010)
